Results: US20200247902A1

Target: bovine submaxillary mucin (BSM) (bovine)
Assay: ELISA on BSM-coated wells, 0-100 nM antibody; periodate-treated signal subtracted (periodate-sensitive STn binding curve)

EC50: 4.2 nM
B1: SIA01 (antibody, V domains shown)
VH: EVQLVQSGAEVKKPGASVKVSCKASGYTFTDHAIHWVRQAPGQGLEWMGYFSPGNDDIKYNEKFRGRVTMTADKSSSTAYMELRSLRSDDTAVYFCKRSLSTPYWGQGTLVTVSS
VL: DIVMTQSPDSLAVSLGERATINCKSSQSLLNRGNHKNYLTWYQQKPGQPPKLLIYWASTRESGVPDRFSGSGSGTDFTLTISSLQAEDVAVYYCQNDYTYPYTFGQGTKVEIK
